Assay results taken from article PMC3203579.

Molecular target: T1, AtFib2 (Arabidopsis thaliana, UniProt Q94AH9 1-320)
T1 sequence: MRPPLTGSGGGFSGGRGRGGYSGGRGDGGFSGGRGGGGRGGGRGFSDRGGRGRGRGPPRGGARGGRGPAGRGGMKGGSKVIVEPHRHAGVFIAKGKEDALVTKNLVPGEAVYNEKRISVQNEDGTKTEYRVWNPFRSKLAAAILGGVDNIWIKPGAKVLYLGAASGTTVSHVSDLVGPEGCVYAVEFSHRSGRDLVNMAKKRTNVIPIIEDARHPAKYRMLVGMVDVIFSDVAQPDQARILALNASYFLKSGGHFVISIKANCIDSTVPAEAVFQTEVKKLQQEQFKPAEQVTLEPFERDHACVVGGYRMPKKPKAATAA
Assay: EMSA

B1: poly(A) 80 nt (ssRNA)
RNA: AAAAAAAAAAAAAAAAAAAAAAAAAAAAAAAAAAAAAAAAAAAAAAAAAAAAAAAAAAAAAAAAAAAAAAAAAAAAAAAA
- Kd: 190 nM
